From patent US20220177560A1

Tests used:
[1] = biological target: HU-3pE-beta-Amyloid (human); experiment: SPR; HU-3pE-beta-Amyloid 0.6 to 4.5 nM
human FcRn (human) = human FcRn (human) (UniProt P55899); experiment: FcRn binding affinity; method not described; average of 5-6 replicates
[2] = biological target: cynomolgus FcRn (cynomolgus) (UniProt Q8SPV9); experiment: as above
cynomolgus FcRn (cynomolgus), sequence (Q8SPV9 24-297 limits assumed, chain 1 of 2): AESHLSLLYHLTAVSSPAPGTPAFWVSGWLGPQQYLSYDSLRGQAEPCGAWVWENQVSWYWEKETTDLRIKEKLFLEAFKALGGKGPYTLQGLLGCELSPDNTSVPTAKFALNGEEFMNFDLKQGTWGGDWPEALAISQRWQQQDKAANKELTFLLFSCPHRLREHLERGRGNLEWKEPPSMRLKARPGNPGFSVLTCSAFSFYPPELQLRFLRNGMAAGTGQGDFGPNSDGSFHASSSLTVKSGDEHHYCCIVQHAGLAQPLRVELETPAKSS
cynomolgus FcRn (cynomolgus), sequence (Q8SPW0 21-119 limits assumed, chain 2 of 2, further chain): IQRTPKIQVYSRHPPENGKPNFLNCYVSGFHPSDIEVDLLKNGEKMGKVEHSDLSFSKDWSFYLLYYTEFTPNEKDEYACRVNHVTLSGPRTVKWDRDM

human FcRn (human), sequence (P55899 24-297 limits assumed, chain 1 of 2): as the sequence (Q8SPV9 24-297 limits assumed, chain 1 of 2) above, with D39N, Q44E, S99G, G189S, N190S, M217L, T269S counted along it
human FcRn (human), sequence (P61769 21-119 limits assumed, chain 2 of 2, further chain): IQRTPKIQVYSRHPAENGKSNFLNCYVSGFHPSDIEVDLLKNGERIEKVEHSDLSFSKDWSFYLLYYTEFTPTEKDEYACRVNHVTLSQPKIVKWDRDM

Substance | Kd [1] | koff [1] | kon [1] | Kd (human FcRn (human)) | Kd [2]
Control mAb (antibody) | 0.0379 nM | 0.000156 s⁻¹ | 4.11e+06 M⁻¹ s⁻¹ | – | –
IgG1 control (antibody) | – | – | – | 443 nM | 430 nM
